US20230391860A1 (CANON MEDICAL SYSTEMS, published 2023)

What was measured:
Test in all cases: ELISA on immobilised peptide, antibody 1 ug/mL
mCRP (151-180) = molecular target: T1, mCRP (151-180) (human)
T1 peptide: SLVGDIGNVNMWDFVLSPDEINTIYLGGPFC

mCRP (61-90) = molecular target: T2, mCRP (61-90) (human)
T2 peptide: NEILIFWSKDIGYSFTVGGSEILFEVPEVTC

mCRP (31-60) = molecular target: T3, mCRP (31-60) (human)
T3 peptide: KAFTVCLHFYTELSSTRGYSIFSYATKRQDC

mCRP (121-150) = molecular target: T4, mCRP (121-150) (human)
T4 peptide: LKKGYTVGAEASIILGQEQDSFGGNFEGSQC

mCRP (181-206) = molecular target: T5, mCRP (181-206) (human)
T5 peptide: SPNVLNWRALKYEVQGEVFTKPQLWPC

mCRP (89) = molecular target: T6, mCRP (89) (human)
T6 peptide: IGYSFTVGGSC
Text: (§1) The following materials were used as materials for epitope analysis. [0156] (a) Plate: Immunoplate for ELISA (96 well) manufactured by Nunc [0157] […] (c) Solid-phase buffer: 0.1 M carbonate buffer pH 9.5 (IBL) [0159] (d) Antiserum dilution buffer: 1% BSA, 0.05% Tween-20 (Kanto Chemical Co., Inc.) in PBS [0160] (e) Labeled antibody dilution buffer: 1% BSA, 0.05% Tween-20 in PBS [0161] (f) Washing buffer: 0.05% Tween-20 in 0.1 M PB [0162] (g) Substrate buffer: K₂HPO₄-citrate buffer (pH 5.1) (IBL) [0163] (h) Reaction stop solution: 1 mol/L-H₂SO₄ (Wako Pure Chemical Industries, Ltd.)
(§2) Epitope analysis was performed by the following procedure. [0166] (a) Peptides were immobilized on a plate by standing at 50 ng/well (50 μL/well) for 16 hours at 4° C. […] (b) Solid phase peptides were washed twice with Dulbecco's PBS (D-PBS) (200 μL/well). [0168] (c) Blocking was performed by adding 200 μL of D-PBS containing 0.1% BSA and 0.05% NaN₃ to each well and leaving it at 4° C. overnight. [0169] (d) Each well was washed twice with the washing buffer. [0170] (e) The antibody was diluted to 1 μg/mL with the dilution buffer and the diluted solution was added to each well (50 μL/well) and left at 37° C. for 30 minutes. [0171] (f) Each well was washed four or more times with the washing buffer. [0172] (g) Anti-mouse IgG (γ-specific)-HRP, a labeled antibody, was added to each well (50 μL/well) and left at 37° C. for 30 minutes. [0173] (h) Each well was washed four or more times with the washing buffer. [0174] (i) A chromogenic reaction was started by adding a substrate solution (400 μg/mL) to each well (100 μL/well), and the reaction was allowed to proceed for 15 minutes at room temperature in the dark. [0175] (j) After 15 minutes, the reaction was stopped by addition of 1 mol/L sulfuric acid (100 μL/well), and absorbance (490 nm) was measured.

mCRP (29) = molecular target: T7, mCRP (29) (human)
T7 peptide: FPKESDTSYVC
Text: as §1, §2

mCRP (129) = molecular target: T8, mCRP (129) (human)
T8 peptide: VDGKPRVRKSC
Text: as §1, §2

mCRP (19) = molecular target: T9, mCRP (19) (human)
T9 peptide: QTDMSRKAFVC
Text: as §1, §2

mCRP (79) = molecular target: T10, mCRP (79) (human)
T10 peptide: NEILIFWSKDC
Text: as §1, §2

mCRP (139) = molecular target: T11, mCRP (139) (human)
T11 peptide: LKKGYTVGAEC
Text: as §1, §2

mCRP (179) = molecular target: T12, mCRP (179) (human)
T12 peptide: MWDFVLSPDEC
Text: as §1, §2

mCRP (69) = molecular target: T13, mCRP (69) (human)
T13 peptide: IFSYATKRQDC
Text: as §1, §2

mCRP (169) = molecular target: T14, mCRP (169) (human)
T14 peptide: SLVGDIGNVNC
Text: as §1, §2

mCRP (39) = molecular target: T15, mCRP (39) (human)
T15 peptide: SLKAPLTKPLC
Text: as §1, §2

mCRP (99) = molecular target: T16, mCRP (99) (human)
T16 peptide: EILFEVPEVTC
Text: as §1, §2

mCRP (209) = molecular target: T17, mCRP (209) (human)
T17 peptide: KYEVQGEVFTKPQLWPC
Text: as §1, §2

mCRP (49) = molecular target: T18, mCRP (49) (human)
T18 peptide: KAFTVCLHFYC
Text: as §1, §2

mCRP (199) = molecular target: T19, mCRP (199) (human)
T19 peptide: SPNVLNWRALC
Text: as §1, §2

mCRP (149) = molecular target: T20, mCRP (149) (human)
T20 peptide: ASIILGQEQDC
Text: as §1, §2

mCRP (189) = molecular target: T21, mCRP (189) (human)
T21 peptide: INTIYLGGPFC
Text: as §1, §2

mCRP (159) = molecular target: T22, mCRP (159) (human)
T22 peptide: SFGGNFEGSQC
Text: as §1, §2

mCRP (59) = molecular target: T23, mCRP (59) (human)
T23 peptide: TELSSTRGYSC
Text: as §1, §2

mCRP (119) = molecular target: T24, mCRP (119) (human)
T24 peptide: ESASGIVEFWC
Text: as §1, §2

mCRP (109) = molecular target: T25, mCRP (109) (human)
T25 peptide: VAPVHICTSWC
Text: as §1, §2

absorbance (490 nm) (mCRP (151-180)): 0.108
absorbance (490 nm) (mCRP (61-90)): 1.98
absorbance (490 nm) (mCRP (31-60)): 0.03
absorbance (490 nm) (mCRP (121-150)): 0.017
absorbance (490 nm) (mCRP (181-206)): 0.006
absorbance (490 nm) (mCRP (89)): 0
absorbance (490 nm) (mCRP (29)): -0.001
absorbance (490 nm) (mCRP (129)): 0.002
absorbance (490 nm) (mCRP (19)): 0.004
absorbance (490 nm) (mCRP (79)): 0
absorbance (490 nm) (mCRP (139)): 0.002
absorbance (490 nm) (mCRP (179)): 0.003
absorbance (490 nm) (mCRP (69)): 0.002
absorbance (490 nm) (mCRP (169)): 0.001
absorbance (490 nm) (mCRP (39)): 0.001
absorbance (490 nm) (mCRP (99)): 1.58
absorbance (490 nm) (mCRP (209)): 0
absorbance (490 nm) (mCRP (49)): 0
absorbance (490 nm) (mCRP (199)): 0.006
absorbance (490 nm) (mCRP (149)): 0.001
absorbance (490 nm) (mCRP (189)): 0.007
absorbance (490 nm) (mCRP (159)): 0.002
absorbance (490 nm) (mCRP (59)): 0.001
absorbance (490 nm) (mCRP (119)): 0.005
absorbance (490 nm) (mCRP (109)): -0.001
B1: human denatured CRP-specific antibody produced from hybridoma mCRP-3C (antibody, mouse IgG2b, V domains shown)
VH: QVQLQQSGAELVRPGASVKLSCKALDYTFTDYEMHWVKQTPVHGLEWIGAIHPGRGGTAYNQKFKGKATLTADKSSSTAYMELSSLTSEDSGVYYCTSYHGGYWGQGTTLTVSS
VL: DVVMTQTPLSLPVSLGDQASISCRSSQSLVHSNENTYLLWYLQKPGQSPKLLIYKVSNRFSGVPDRFSGSGSGTDFTLKISRVEAEDLGVYFCSQTTHVPWTFGGGTKLEIKR
notes: Mouse IgG2b, kappa; also called 3C antibody
